B1: Azoarcus group I ribozyme (parent)
chain: GUGCCUUGCGCCGGGAAACCACGCAAGGGAUGGUGUCAAAUUCGGCGAAACCUAAGCGCCCGCCCGGGCGUAUGGCAACGCCGAGCCAAGCUUCGGCGCCUGCGCCGAUGAAGGUGUAGAGACUAGACGGCACCCACCUAAGGCAAACGCUAUGGUGAAGGCAUAGUCCAGGGAGUGGCGAAAGUCACACAAACCGG

The data set covers variants of B1. Briefly: reverse-splicing fitness (ratio to wild type); higher = more active; in vitro selection; Mg2+ level not given. The essentials:
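An in vitro group I ribozyme library with randomized positions was T7-transcribed and gel-purified. In triplicate, 10 pmol RNA in EPPS pH 7.5 was reacted with 50 pmoles of a 30-nt RNA substrate for 1 h at 37 °C across several added MgCl2 levels (1–48 mM), then stopped with EDTA. Products were reverse transcribed from a substrate-complementary primer, PCR-amplified and sequenced (HiSeq 4000). Fitness is a variant's read proportion after selection over that before, normalised to wild type.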
C82U A111G A120C A145U C169U U176G: the reverse-splicing fitness came out at 0.00307.

Regarding C82U A111G A120C A145U C169U U176C, the reverse-splicing fitness came out at 0.0132.

Take C82U A111G A120C A145U C169U U176A: the reverse-splicing fitness was determined as 0.0139.

Consider C82U A111G A120C C169G U176A, for which the reverse-splicing fitness turned out to be 0.0168.

As for C82U A111G A120C C169G U176G, the reverse-splicing fitness was 0.00426.

For the variant C82U A111G A120C C169G U176C, the reverse-splicing fitness worked out at 0.0156.

As to C82U A111G A120G A145C C169U U176A, the reverse-splicing fitness stood at 0.0189.

As to C82U A111G A120G A145C C169U U176G, the reverse-splicing fitness amounted to 0.00353.

In the case of C82U A111G A120G A145C C169U U176C, the reverse-splicing fitness came to 0.0105.

Take C82U A111G A120G A145G C150U C169U: the reverse-splicing fitness worked out at 0.0114.

On to C82U A111G A120G A145G C150U C169G, for which the reverse-splicing fitness amounted to 0.0111.

For C82U A111G A120G A145G C150U C169A, the reverse-splicing fitness came to 0.0108.

As for C82U A111G A120G A145U C150G U176G, the reverse-splicing fitness was 0.00321.

On to C82U A111G A120G A145U C150G U176C, for which the reverse-splicing fitness worked out at 0.00779.

In the case of C82U A111G A120G A145U C150G U176A, the reverse-splicing fitness turned out to be 0.00535.

As for C82U A111G A120G A145U C150A C169A, the reverse-splicing fitness turned out to be 0.00822.

As for C82U A111G A120G A145U C150A C169G, the reverse-splicing fitness was 0.00754.

With C82U A111G A120G A145U C150A C169U, the reverse-splicing fitness amounted to 0.00646.

Turning to C82U A111G A120C C169U U176A, the reverse-splicing fitness was found to be 0.0149.

With C82U A111G A120C C169U U176G, the reverse-splicing fitness is 0.00349.

With C82U A111G A120C C169U U176C, the reverse-splicing fitness amounted to 0.014.

With C82U A111G A120G A145U, the reverse-splicing fitness amounted to 0.0174.

As for C82U A111G A120G A145C, the reverse-splicing fitness turned out to be 0.0135.

For C82U A111G A120G A145G, the reverse-splicing fitness came to 0.0164.

For C82U A111G A120G A145C C150G U176G, the reverse-splicing fitness was determined as 0.00261.

With C82U A111G A120G A145C C150G U176C, the reverse-splicing fitness was found to be 0.00614.

On to C82U A111G A120G A145C C150G U176A, for which the reverse-splicing fitness was found to be 0.00404.

In the case of C82U A111G A120G A145G C150U C169A U176C, the reverse-splicing fitness is 0.0148.

For the variant C82U A111G A120G A145G C150U C169A U176A, the reverse-splicing fitness turned out to be 0.0143.

With C82U A111G A120G A145G C150U C169A U176G, the reverse-splicing fitness was 0.00562.

With C82U A111G A120C C150U C169A U176A, the reverse-splicing fitness is 0.0164.

With C82U A111G A120C C150U C169A U176G, the reverse-splicing fitness stood at 0.00397.

As for C82U A111G A120C C150U C169A U176C, the reverse-splicing fitness is 0.011.

Regarding C82U A111G A120C C150A C169U, the reverse-splicing fitness was found to be 0.0114.

For C82U A111G A120C C150A C169A, the reverse-splicing fitness was 0.0107.

With C82U A111G A120C C150A C169G, the reverse-splicing fitness came to 0.0102.

In the case of C82U A111G A120C A145U C150A C169U, the reverse-splicing fitness was 0.00709.

For C82U A111G A120C A145U C150A C169G, the reverse-splicing fitness worked out at 0.00798.

Take C82U A111G A120C A145U C150A C169A: the reverse-splicing fitness came out at 0.00739.

As to C82U A111G A120G A145C C169A U176G, the reverse-splicing fitness came to 0.00366.

As to C82U A111G A120G A145C C169A U176A, the reverse-splicing fitness is 0.011.

Regarding C82U A111G A120G A145C C169A U176C, the reverse-splicing fitness came out at 0.00572.

On to C82U A111G A120G A145U C169A U176A, for which the reverse-splicing fitness is 0.0102.

In the case of C82U A111G A120G A145U C169A U176G, the reverse-splicing fitness was determined as 0.00425.

As for C82U A111G A120G A145U C169A U176C, the reverse-splicing fitness stood at 0.00896.

As to C82U A111G A120G A145C C150G C169G U176C, the reverse-splicing fitness worked out at 0.00692.

In the case of C82U A111G A120G A145C C150G C169G U176A, the reverse-splicing fitness came to 0.00868.

Regarding C82U A111G A120G A145C C150G C169G U176G, the reverse-splicing fitness was 0.00399.

Take C82U A111G A120C A145U C150G C169A U176G: the reverse-splicing fitness was determined as 0.00477.

Turning to C82U A111G A120C A145U C150G C169A U176C, the reverse-splicing fitness was 0.00798.

As to C82U A111G A120C A145U C150G C169A U176A, the reverse-splicing fitness was determined as 0.00839.

In the case of C82U A111G A120G A145C U176C, the reverse-splicing fitness stood at 0.00983.

Turning to C82U A111G A120G A145C U176A, the reverse-splicing fitness came out at 0.0105.

As to C82U A111G A120G A145C U176G, the reverse-splicing fitness was 0.00368.

C82U A111G A120C A145U: the reverse-splicing fitness came out at 0.0519.

C82U A111G A120G A145C C150A C169A: the reverse-splicing fitness came to 0.00777.

In the case of C82U A111G A120G A145C C150A C169U, the reverse-splicing fitness came out at 0.00634.

Take C82U A111G A120G A145C C150A C169G: the reverse-splicing fitness is 0.00737.

For C82U A111G A120C A145U C150G C169G U176G, the reverse-splicing fitness was found to be 0.00386.

For C82U A111G A120C A145U C150G C169G U176A, the reverse-splicing fitness came to 0.0063.

With C82U A111G A120C A145U C150G C169G U176C, the reverse-splicing fitness came to 0.00388.

As to C82U A111G A120G A145C C150U C169G, the reverse-splicing fitness worked out at 0.00844.

As for C82U A111G A120G A145C C150U C169A, the reverse-splicing fitness amounted to 0.0078.

For the variant C82U A111G A120G A145C C150U C169U, the reverse-splicing fitness was 0.00745.

For C82U A111G A120G, the reverse-splicing fitness was found to be 0.0173.

Take C82U A111G A120C A145U C150G C169U: the reverse-splicing fitness was found to be 0.00776.

In the case of C82U A111G A120C A145U C150G C169A, the reverse-splicing fitness amounted to 0.00804.

C82U A111G A120C A145U C150G C169G: the reverse-splicing fitness is 0.00698.

For the variant C82U A111G A120G A145G C150G C169U, the reverse-splicing fitness amounted to 0.00855.

In the case of C82U A111G A120G A145G C150G C169A, the reverse-splicing fitness came out at 0.00895.

C82U A111G A120G A145G C150G C169G: the reverse-splicing fitness worked out at 0.00721.

For the variant C82U A111G A120G A145G C169U U176G, the reverse-splicing fitness came out at 0.00414.

As to C82U A111G A120G A145G C169U U176A, the reverse-splicing fitness was determined as 0.0209.

For C82U A111G A120G A145G C169U U176C, the reverse-splicing fitness came out at 0.0164.

In the case of C82U A111G A120C C150G C169U U176G, the reverse-splicing fitness was 0.00489.

Regarding C82U A111G A120C C150G C169U U176C, the reverse-splicing fitness came out at 0.0138.

Regarding C82U A111G A120C C150G C169U U176A, the reverse-splicing fitness was 0.00617.

With C82U A111G A120C C169A, the reverse-splicing fitness came to 0.00806.

Consider C82U A111G A120C C169U, for which the reverse-splicing fitness is 0.0118.

C82U A111G A120C C169G: the reverse-splicing fitness came to 0.00773.

In the case of C82U A111G A120G A145U C150U, the reverse-splicing fitness came out at 0.0126.

On to C82U A111G A120G A145U C150A, for which the reverse-splicing fitness was 0.00726.

On to C82U A111G A120G A145U C150G, for which the reverse-splicing fitness was 0.00645.

These data come from the RNAGym collection of RNA variant scans (doi:10.1093/molbev/msab373).
